Assay results published in patent US20200239529A1.

Target: CXCR4 (human) (UniProt P61073)
Assay: cell-based or functional assay

Chain of UniProt P61073 (P61073 whole entry): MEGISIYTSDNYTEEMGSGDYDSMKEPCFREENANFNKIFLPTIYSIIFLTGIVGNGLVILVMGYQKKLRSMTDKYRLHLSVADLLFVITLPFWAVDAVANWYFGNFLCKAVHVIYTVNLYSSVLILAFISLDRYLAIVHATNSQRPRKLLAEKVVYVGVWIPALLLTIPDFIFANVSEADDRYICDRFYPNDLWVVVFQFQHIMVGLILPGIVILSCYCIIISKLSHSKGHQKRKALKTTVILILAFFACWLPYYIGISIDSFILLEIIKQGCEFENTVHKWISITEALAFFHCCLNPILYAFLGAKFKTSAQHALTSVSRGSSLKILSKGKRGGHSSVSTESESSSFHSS

Row | Substance | IC50 of killing cultured HeLa cells [nM]
1 | T22-DITOX-H6 (from UniProt P00587 26-411) | 0.78
2 | T22-PE24-H6 | 0.99
